Sequences and labels used below:
B1: glmS ribozyme (parent)
chain: AUAAAAGCGCCAGAACUACAGAAAUGUAGUUGACGAGGAGGAGGUUUAUCGAAUUUUCGGCGGAUGCCUCCAAA

± gives the standard error. For some assays here: Variants at the floor of the assay were thinned out.

Settings in all cases: with glucosamine-6-phosphate
In series [1] the parent is B1. The series can be described thus: KM; higher = weaker cofactor use; RNA array. A digest of the protocol:
(§1)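 Barcoded ribozyme variants, transcribed in situ by E. coli RNA polymerase on sequenced MiSeq chips, were followed via a hybridised Cy3 probe at 37 °C. Glucosamine-6-phosphate ranged from 40 μM to 10 mM in HEPES/KCl/Mg(OAc)2 buffer. kobs came from decay fits to per-tile medians, and kcat and KM from weighted Michaelis–Menten fits.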

The variants in series [2] derive from B1. The experiment in a line: self-cleavage kobs at 40 uM GlcN6P; higher = faster cleavage; RNA array. Summed up:
as §1

Series [3] covers variants of B1. The series can be described thus: self-cleavage kobs at 160 uM GlcN6P; higher = faster cleavage; RNA array. A digest of the protocol:
as §1

Series [4] covers variants of B1. The experiment in a line: self-cleavage kobs at 640 uM GlcN6P; higher = faster cleavage; RNA array. A digest of the protocol:
as §1

Variants of B1 are the subject of series [5]. The series can be described thus: self-cleavage kobs at 2500 uM GlcN6P; higher = faster cleavage; RNA array. Summed up:
as §1

Variants of B1 are the subject of series [6]. The series can be described thus: self-cleavage kobs at 10000 uM GlcN6P; higher = faster cleavage; RNA array. Summed up:
as §1

In series [7] the parent is B1. The series can be described thus: kcat; higher = faster cleavage; RNA array. A digest of the protocol: as §1

By KM is commonly meant the concentration of substrate that gives half-maximal velocity. A word on the kcat: it is the maximal rate divided by the concentration of active sites.

Turning to A12U U55G, the KM in series [1] stood at 104 ± 42 µM. For the same variant, in series [2], the “self-cleavage kobs at 40 uM GlcN6P” value was 0.00298 ± 0.00031 s⁻¹. Also, the “self-cleavage kobs at 160 uM GlcN6P” value in series [3] stood at 0.00618 ± 0.0009 s⁻¹. Further, the “self-cleavage kobs at 640 uM GlcN6P” value in series [4] is 0.0105 ± 0.0021 s⁻¹. For the same variant, the “self-cleavage kobs at 2500 uM GlcN6P” value in series [5] is 0.00928 ± 0.0023 s⁻¹. The “self-cleavage kobs at 10000 uM GlcN6P” value in series [6] turned out to be 0.119 ± 0.048 s⁻¹.

In the case of A33G G41A, the “self-cleavage kobs at 40 uM GlcN6P” value in series [2] is under 1e-05 s⁻¹. For the same variant, in series [3], the “self-cleavage kobs at 160 uM GlcN6P” value was under 1e-05 s⁻¹. Besides, the “self-cleavage kobs at 10000 uM GlcN6P” value in series [6] is under 1e-05 s⁻¹.

For G37A G63C, the “self-cleavage kobs at 40 uM GlcN6P” value in series [2] was under 1e-05 s⁻¹. In series [3], the “self-cleavage kobs at 160 uM GlcN6P” value was under 1e-05 s⁻¹. Besides, the “self-cleavage kobs at 640 uM GlcN6P” value in series [4] is under 1e-05 s⁻¹. Moreover, the “self-cleavage kobs at 2500 uM GlcN6P” value in series [5] was under 1e-05 s⁻¹. For the same variant, the “self-cleavage kobs at 10000 uM GlcN6P” value in series [6] was under 1e-05 s⁻¹.

For G37A G63A, the KM in series [1] came out at 278 ± 110 µM.

Turning to C34G C50U, in series [2], the “self-cleavage kobs at 40 uM GlcN6P” value was under 1e-05 s⁻¹. Further, in series [4], the “self-cleavage kobs at 640 uM GlcN6P” value was under 1e-05 s⁻¹. Moreover, in series [6], the “self-cleavage kobs at 10000 uM GlcN6P” value was under 1e-05 s⁻¹.

Regarding A53C U56C, the “self-cleavage kobs at 40 uM GlcN6P” value in series [2] was under 1e-05 s⁻¹. The “self-cleavage kobs at 2500 uM GlcN6P” value in series [5] is 0.000121 ± 2e-05 s⁻¹.

As for G13C G59C, the “self-cleavage kobs at 40 uM GlcN6P” value in series [2] is under 1e-05 s⁻¹. For the same variant, the “self-cleavage kobs at 160 uM GlcN6P” value in series [3] is under 1e-05 s⁻¹. The “self-cleavage kobs at 640 uM GlcN6P” value in series [4] was under 1e-05 s⁻¹. The “self-cleavage kobs at 10000 uM GlcN6P” value in series [6] is under 1e-05 s⁻¹.

As to C11A A48U A52U, the “self-cleavage kobs at 40 uM GlcN6P” value in series [2] is under 1e-05 s⁻¹. Besides, in series [6], the “self-cleavage kobs at 10000 uM GlcN6P” value was under 1e-05 s⁻¹.

Regarding C50G U57A C58G, the “self-cleavage kobs at 40 uM GlcN6P” value in series [2] was found to be 8.29e-05 ± 2.4e-05 s⁻¹. Besides, in series [3], the “self-cleavage kobs at 160 uM GlcN6P” value came out at 0.000517 ± 0.00012 s⁻¹. The “self-cleavage kobs at 640 uM GlcN6P” value in series [4] came to 0.000297 ± 9.4e-05 s⁻¹. Moreover, the “self-cleavage kobs at 2500 uM GlcN6P” value in series [5] came out at 7.43e-05 ± 2.1e-05 s⁻¹.

A36G G37C: in series [2], the “self-cleavage kobs at 40 uM GlcN6P” value is under 1e-05 s⁻¹. In addition, in series [3], the “self-cleavage kobs at 160 uM GlcN6P” value is under 1e-05 s⁻¹. For the same variant, the “self-cleavage kobs at 10000 uM GlcN6P” value in series [6] is under 1e-05 s⁻¹.

G43A C50G: in series [2], the “self-cleavage kobs at 40 uM GlcN6P” value is under 1e-05 s⁻¹. Also, the “self-cleavage kobs at 160 uM GlcN6P” value in series [3] was under 1e-05 s⁻¹. The “self-cleavage kobs at 640 uM GlcN6P” value in series [4] was under 1e-05 s⁻¹. Moreover, in series [6], the “self-cleavage kobs at 10000 uM GlcN6P” value is under 1e-05 s⁻¹.

For A39C C50U, the KM in series [1] was 1080 ± 200 µM.

Turning to G35A C50G C61G, in series [2], the “self-cleavage kobs at 40 uM GlcN6P” value is 0.000147 ± 3e-05 s⁻¹. Moreover, the “self-cleavage kobs at 10000 uM GlcN6P” value in series [6] was 0.000252 ± 4.7e-05 s⁻¹.

For the variant A39G U55G, the KM in series [1] is 212 ± 100 µM. Moreover, in series [2], the “self-cleavage kobs at 40 uM GlcN6P” value is 0.0012 ± 0.00016 s⁻¹. Moreover, the “self-cleavage kobs at 160 uM GlcN6P” value in series [3] was 0.00211 ± 0.0006 s⁻¹. The “self-cleavage kobs at 640 uM GlcN6P” value in series [4] was found to be 0.00499 ± 0.00097 s⁻¹. For the same variant, in series [5], the “self-cleavage kobs at 2500 uM GlcN6P” value stood at 0.00613 ± 0.0016 s⁻¹. Also, in series [6], the “self-cleavage kobs at 10000 uM GlcN6P” value came to 0.0177 ± 0.0048 s⁻¹.

Turning to C10A U47G G63A, in series [2], the “self-cleavage kobs at 40 uM GlcN6P” value is under 1e-05 s⁻¹. For the same variant, in series [6], the “self-cleavage kobs at 10000 uM GlcN6P” value was under 1e-05 s⁻¹.

A6G C8G A33G A48U C58U A64U C70A: in series [2], the “self-cleavage kobs at 40 uM GlcN6P” value worked out at 3.84e-05 ± 1.7e-05 s⁻¹. The “self-cleavage kobs at 10000 uM GlcN6P” value in series [6] was determined as 0.000104 ± 3e-05 s⁻¹.

Regarding C58G A64U, the “self-cleavage kobs at 40 uM GlcN6P” value in series [2] was under 1e-05 s⁻¹. Further, in series [4], the “self-cleavage kobs at 640 uM GlcN6P” value is under 1e-05 s⁻¹. In series [5], the “self-cleavage kobs at 2500 uM GlcN6P” value is under 1e-05 s⁻¹. Further, in series [6], the “self-cleavage kobs at 10000 uM GlcN6P” value is under 1e-05 s⁻¹.

Regarding C58G A64C, the “self-cleavage kobs at 40 uM GlcN6P” value in series [2] is under 1e-05 s⁻¹. Further, in series [3], the “self-cleavage kobs at 160 uM GlcN6P” value is under 1e-05 s⁻¹.

As for G29U C61G, the kcat in series [7] was 3.41e-05 ± 1.3e-05 s⁻¹. Besides, the “self-cleavage kobs at 10000 uM GlcN6P” value in series [6] is under 1e-05 s⁻¹.

As to G13C U31G A48U, the “self-cleavage kobs at 40 uM GlcN6P” value in series [2] was under 1e-05 s⁻¹.

On to A12G U45C, for which the kcat in series [7] came out at 6.32e-05 ± 3.9e-06 s⁻¹. The KM in series [1] was found to be 2510 ± 620 µM. For the same variant, the “self-cleavage kobs at 2500 uM GlcN6P” value in series [5] was 3.29e-05 ± 1.6e-05 s⁻¹. Besides, in series [6], the “self-cleavage kobs at 10000 uM GlcN6P” value was 5.04e-05 ± 8e-06 s⁻¹.

Take A14U A48C G51C U65G: in series [2], the “self-cleavage kobs at 40 uM GlcN6P” value is under 1e-05 s⁻¹. In addition, the “self-cleavage kobs at 10000 uM GlcN6P” value in series [6] is under 1e-05 s⁻¹.

In the case of A33G G63A U65G, the “self-cleavage kobs at 40 uM GlcN6P” value in series [2] was under 1e-05 s⁻¹.

For U45C C67A C70G, the “self-cleavage kobs at 40 uM GlcN6P” value in series [2] was under 1e-05 s⁻¹. For the same variant, the “self-cleavage kobs at 2500 uM GlcN6P” value in series [5] was under 1e-05 s⁻¹.

The values above are taken from the supplement of paper PMC7125110.
